Patent publication US20240261333A1 (published 2024)

Key:
Test in all cases: anti-FLAG co-IP from lysate of N-FLAG B3GNT2 cells, mass spectrometry
ATAD3A = molecular target: T1, ATAD3A (human, UniProt Q9NVI7 2-586)
T1 construct: also called NP_001164006.1 (+2)
T1 sequence (looked up): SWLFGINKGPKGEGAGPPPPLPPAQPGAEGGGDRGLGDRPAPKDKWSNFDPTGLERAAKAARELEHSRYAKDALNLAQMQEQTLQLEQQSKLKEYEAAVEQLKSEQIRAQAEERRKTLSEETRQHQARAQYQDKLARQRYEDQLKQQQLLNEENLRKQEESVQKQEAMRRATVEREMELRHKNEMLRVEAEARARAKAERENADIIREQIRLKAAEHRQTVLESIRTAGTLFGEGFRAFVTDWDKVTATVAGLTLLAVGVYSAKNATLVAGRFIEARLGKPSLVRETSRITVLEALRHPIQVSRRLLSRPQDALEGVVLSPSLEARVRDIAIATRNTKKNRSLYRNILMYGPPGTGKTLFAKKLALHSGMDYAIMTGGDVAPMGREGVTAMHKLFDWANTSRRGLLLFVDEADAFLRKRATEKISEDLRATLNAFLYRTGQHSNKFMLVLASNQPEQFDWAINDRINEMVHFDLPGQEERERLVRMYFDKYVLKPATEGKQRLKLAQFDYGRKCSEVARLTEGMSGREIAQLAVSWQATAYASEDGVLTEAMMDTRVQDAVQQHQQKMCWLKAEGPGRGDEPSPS

SFXN3 = molecular target: T2, SFXN3 (human, UniProt Q9BWM7 1-321)
T2 construct: also called NP_112233.2
T2 sequence (looked up): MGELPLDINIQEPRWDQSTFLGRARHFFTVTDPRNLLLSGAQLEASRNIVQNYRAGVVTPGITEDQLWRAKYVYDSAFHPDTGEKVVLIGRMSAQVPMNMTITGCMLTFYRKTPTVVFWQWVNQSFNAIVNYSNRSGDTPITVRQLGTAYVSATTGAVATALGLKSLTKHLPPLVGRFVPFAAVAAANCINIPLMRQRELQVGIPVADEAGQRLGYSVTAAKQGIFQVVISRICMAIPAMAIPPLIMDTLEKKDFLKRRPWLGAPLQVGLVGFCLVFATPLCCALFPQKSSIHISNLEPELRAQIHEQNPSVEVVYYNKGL

RCN1 = molecular target: T3, RCN1 (human, UniProt Q15293 30-331)
T3 construct: also called NP_002892.1
T3 sequence (looked up): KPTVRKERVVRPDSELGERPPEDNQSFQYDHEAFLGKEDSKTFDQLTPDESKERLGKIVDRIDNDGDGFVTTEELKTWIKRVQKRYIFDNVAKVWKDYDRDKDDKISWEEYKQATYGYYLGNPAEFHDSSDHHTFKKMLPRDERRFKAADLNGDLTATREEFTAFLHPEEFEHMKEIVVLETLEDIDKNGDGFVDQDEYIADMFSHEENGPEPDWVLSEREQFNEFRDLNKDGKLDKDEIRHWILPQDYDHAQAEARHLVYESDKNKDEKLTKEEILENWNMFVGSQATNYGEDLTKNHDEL

ERP44 = molecular target: T4, ERP44 (human, UniProt Q9BS26 30-406)
T4 construct: also called NP_055866.1
T4 sequence (looked up): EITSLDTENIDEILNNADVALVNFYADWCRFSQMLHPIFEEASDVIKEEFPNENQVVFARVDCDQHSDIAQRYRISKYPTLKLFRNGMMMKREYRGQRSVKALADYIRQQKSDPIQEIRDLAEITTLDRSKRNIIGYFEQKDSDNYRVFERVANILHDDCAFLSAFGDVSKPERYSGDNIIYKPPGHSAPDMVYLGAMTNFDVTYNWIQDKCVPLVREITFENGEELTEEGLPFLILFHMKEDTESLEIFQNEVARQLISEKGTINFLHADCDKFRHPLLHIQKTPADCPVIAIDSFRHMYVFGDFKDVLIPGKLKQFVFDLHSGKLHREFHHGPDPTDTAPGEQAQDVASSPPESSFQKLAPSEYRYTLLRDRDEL

TECR = molecular target: T5, TECR (human, UniProt Q9NZ01 1-308)
T5 construct: also called NP_612510.1 (+2)
T5 sequence (looked up): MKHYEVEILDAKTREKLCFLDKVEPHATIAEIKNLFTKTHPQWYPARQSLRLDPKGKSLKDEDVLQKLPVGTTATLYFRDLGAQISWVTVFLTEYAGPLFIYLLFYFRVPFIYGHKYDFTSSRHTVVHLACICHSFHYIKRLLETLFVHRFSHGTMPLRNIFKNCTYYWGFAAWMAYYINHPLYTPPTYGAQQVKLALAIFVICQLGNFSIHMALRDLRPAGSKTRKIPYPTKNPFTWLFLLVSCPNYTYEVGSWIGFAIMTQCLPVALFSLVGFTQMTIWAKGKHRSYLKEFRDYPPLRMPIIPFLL

co-IP mass spectrometry count (ATAD3A): 0 | co-IP mass spectrometry count (SFXN3): 0 | co-IP mass spectrometry count (RCN1): 0 | co-IP mass spectrometry count (ERP44): 0 | co-IP mass spectrometry count (TECR): 0
B1: N-terminal FLAG tagged B3GNT2 (enzyme, human, UniProt Q9NY97 1-397, looked up)
chain: MSVGRRRIKLLGILMMANVFIYFIMEVSKSSSQEKNGKGEVIIPKEKFWKISTPPEAYWNREQEKLNRQYNPILSMLTNQTGEAGRLSNISHLNYCEPDLRVTSVVTGFNNLPDRFKDFLLYLRCRNYSLLIDQPDKCAKKPFLLLAIKSLTPHFARRQAIRESWGQESNAGNQTVVRVFLLGQTPPEDNHPDLSDMLKFESEKHQDILMWNYRDTFFNLSLKEVLFLRWVSTSCPDTEFVFKGDDDVFVNTHHILNYLNSLSKTKAKDLFIGDVIHNAGPHRDKKLKYYIPEVVYSGLYPPYAGGGGFLYSGHLALRLYHITDQVHLYPIDDVYTGMCLQKLGLVPEKHKGFRTFDIEEKNKNNICSYVDLMLVHSRKPQEMIDIWSQLQSAHLKC
notes: Bait of the co-IP; pulled down from cell lysate with mouse anti-FLAG antibody; also called N-FLAG B3GNT2; N-term FLAG; not shown: N-terminal FLAG tag
